Experimental data as given in IntAct's records for PubMed 31260151.

B1: Serine protease HTRA3 (Homo sapiens), P83110-2 (parent)
chain: MQARALLLAALAALALAREPPAAPCPARCDVSRCPSPRCPGGYVPDLCNCCLVCAASEGEPCGGPLDSPCGESLECVRGLCRCRWSHAVCGTDGHTYANVCALQAASRRALQLSGTPVRQLQKGACPLGLHQLSSPRYKFNFIADVVEKIAPAVVHIELFLRHPLFGRNVPLSSGSGFIMSEAGLIITNAHVVSSNSAAPGRQQLKVQLQNGDSYEATIKDIDKKSDIATIKIHPKKKLPVLLLGHSADLRPGEFVVAIGSPFALQNTVTTGIVSTAQREGRELGLRDSDMDYIQTDAIINYGNSGGPLVNLDGEVIGINTLKVTAGISFAIPSDRITRFLTEFQDKQIKAPSLAVH
B2: Serine protease HTRA3 (Homo sapiens), P83110-1 (parent)
chain: MQARALLLAALAALALAREPPAAPCPARCDVSRCPSPRCPGGYVPDLCNCCLVCAASEGEPCGGPLDSPCGESLECVRGLCRCRWSHAVCGTDGHTYANVCALQAASRRALQLSGTPVRQLQKGACPLGLHQLSSPRYKFNFIADVVEKIAPAVVHIELFLRHPLFGRNVPLSSGSGFIMSEAGLIITNAHVVSSNSAAPGRQQLKVQLQNGDSYEATIKDIDKKSDIATIKIHPKKKLPVLLLGHSADLRPGEFVVAIGSPFALQNTVTTGIVSTAQREGRELGLRDSDMDYIQTDAIINYGNSGGPLVNLDGEVIGINTLKVTAGISFAIPSDRITRFLTEFQDKQIKDWKKRFIGIRMRTITPSLVDELKASNPDFPEVSSGIYVQEVAPNSPSQRGGIQDGDIIVKVNGRPLVDSSELQEAVLTESPLLLEVRRGNDDLLFSIAPEVVM

Variants of: B1
Settings: with xiap_human XIAP
Target sequence in this assay (P98170 whole entry): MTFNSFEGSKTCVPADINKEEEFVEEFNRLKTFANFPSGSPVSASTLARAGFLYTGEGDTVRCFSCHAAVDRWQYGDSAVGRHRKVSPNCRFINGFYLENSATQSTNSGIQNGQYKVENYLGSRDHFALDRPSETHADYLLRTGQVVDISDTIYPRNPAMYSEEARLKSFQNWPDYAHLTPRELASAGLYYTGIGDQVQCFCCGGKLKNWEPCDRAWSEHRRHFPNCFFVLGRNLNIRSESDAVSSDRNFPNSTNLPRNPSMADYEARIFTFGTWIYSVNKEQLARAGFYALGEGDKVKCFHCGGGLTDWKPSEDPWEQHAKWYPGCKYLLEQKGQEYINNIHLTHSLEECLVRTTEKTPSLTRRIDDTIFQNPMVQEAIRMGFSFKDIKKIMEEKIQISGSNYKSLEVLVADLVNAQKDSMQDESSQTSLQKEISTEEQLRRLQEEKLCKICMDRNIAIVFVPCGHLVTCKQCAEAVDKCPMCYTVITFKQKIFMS

effect of a mutation on the interaction	Variant
decreasing interaction strength	S305A

Variants of: B2
Settings: with xiap_human XIAP
Target sequence in this assay (P98170 whole entry): as above

effect of a mutation on the interaction	Variant
decreasing interaction strength	S305A
